Results on one substance are retold here after patent US20240082401A1.

Assay [1] addresses CS1-BCMA-41BB-CD3 CAR (bispecific CS1-BCMA chimeric antigen receptor), expressed on T cells. Kind of assay: FACS, donor #57 T cells, goat anti-mouse F(ab)2 staining.
For assay [2] the target is unchanged. The experiment in a line: FACS, donor #890 T cells, goat anti-mouse F(ab)2 staining.
For assay [3], the target named is BCMA-41BB-CD3-CAR (monospecific BCMA CAR), expressed on T cells. The experiment in a line: FACS, donor #57 single BCMA CAR-T cells, goat anti-mouse F(ab)2 staining. For orientation: In flow cytometry, cells or beads pass a laser one at a time.
Assay [4] deals with CS1-BCMA-41BB-CD3 CAR (bispecific CS1-BCMA chimeric antigen receptor), expressed on T cells. The experiment in a line: FACS of CAR-transduced T cells stained with biotinylated goat anti-mouse F(ab)2 and PE-streptavidin.
Assay [5] addresses monospecific CS1 CAR, expressed on T cells. Kind of assay: FACS, donor #57 CS1 CAR-T cells; detection reagent not named in the sentence (taken as anti-mouse F(ab)2).

Bounds are passed on as bounds.

CS1-BCMA-41BB-CD3 CAR (bispecific CS1-BCMA chimeric antigen receptor), expressed on T cells, sequence (chain, as listed by the source mutant): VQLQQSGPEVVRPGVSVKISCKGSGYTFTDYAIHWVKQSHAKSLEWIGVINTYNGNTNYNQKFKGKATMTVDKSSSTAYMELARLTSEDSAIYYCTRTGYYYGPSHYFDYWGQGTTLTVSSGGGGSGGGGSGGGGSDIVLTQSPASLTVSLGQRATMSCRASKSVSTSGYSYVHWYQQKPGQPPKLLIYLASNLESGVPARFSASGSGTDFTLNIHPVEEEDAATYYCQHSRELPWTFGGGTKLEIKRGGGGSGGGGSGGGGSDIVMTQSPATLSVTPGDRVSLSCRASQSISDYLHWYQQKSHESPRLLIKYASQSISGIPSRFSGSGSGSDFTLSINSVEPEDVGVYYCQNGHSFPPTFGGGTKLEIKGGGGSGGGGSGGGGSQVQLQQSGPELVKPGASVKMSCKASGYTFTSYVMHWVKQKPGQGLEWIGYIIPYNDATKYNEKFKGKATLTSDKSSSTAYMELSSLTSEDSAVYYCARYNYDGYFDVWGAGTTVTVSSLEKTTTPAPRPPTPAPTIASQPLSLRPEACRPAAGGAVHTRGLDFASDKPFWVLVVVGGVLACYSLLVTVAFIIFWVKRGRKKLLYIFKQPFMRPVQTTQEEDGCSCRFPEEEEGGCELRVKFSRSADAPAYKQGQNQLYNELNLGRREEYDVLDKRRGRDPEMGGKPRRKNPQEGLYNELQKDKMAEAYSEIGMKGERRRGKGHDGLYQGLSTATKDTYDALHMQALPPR

Regarding “Biotin-labeled polyclonal goat anti-mouse F(ab)2 antibody (Life Technologies)”, the proportion of CAR cells detected was over 70% in assay [1] and 57% in assay [3]. Further, in assay [2], the proportion of CAR+ cells detected is 81%. Besides, the percentage of CAR+ cells detected in assay [4] was over 95%. The percentage of CAR+ cells in assay [5] was determined as 68%.
